Data taken from patent US20240287184A1 (GUANGDONG FAPON BIOPHARMA, published 2024).

What was measured:
[1] = target: T1, human CD28-hFc (human, UniProt P10747 19-152); test: ELISA, antigen coated at 1 µg/mL
T1 construct: Commercial protein; also called CD28 (ACRO); not shown: human Fc (hFc)
Source text: (§1) A horse radish peroxidase (HRP)-coupled anti-human IgG (F) was used as the secondary antibody. After developed with TMB and terminated, it was read for an OD450 value with a microplate reader.

[2] = target: T2, human ICOS-hFc (human, UniProt Q9Y6W8 21-140); test: ELISA, antigen coated at 1 µg/mL
T2 construct: Commercial protein; also called ICOS (ACRO); not shown: human Fc (hFc)
T2 sequence (looked up): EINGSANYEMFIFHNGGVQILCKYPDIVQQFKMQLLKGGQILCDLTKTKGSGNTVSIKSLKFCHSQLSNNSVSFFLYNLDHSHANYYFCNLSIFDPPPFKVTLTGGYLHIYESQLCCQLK
Source text: as §1

[3] = target: T3, human CTLA4-hFc (human, UniProt P16410 37-162, limits assumed); test: ELISA, antigen coated at 1 µg/mL
T3 construct: Commercial protein; also called CTLA-4 (ACRO); not shown: human Fc (hFc)
T3 sequence (P16410 37-162 limits assumed): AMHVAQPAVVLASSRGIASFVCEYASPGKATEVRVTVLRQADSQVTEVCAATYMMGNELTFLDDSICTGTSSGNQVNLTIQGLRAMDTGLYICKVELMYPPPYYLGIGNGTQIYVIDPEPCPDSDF
Source text: as §1

[4] = target: T4, mouse PD1 expressed on the surface of CHO cells (CHO-mousePD1) (mouse, UniProt Q02242 25-288); test: flow cytometry on CHO-mousePD1 cells
T4 construct: whole, on cells; also called CHO-mPD1
T4 sequence (looked up): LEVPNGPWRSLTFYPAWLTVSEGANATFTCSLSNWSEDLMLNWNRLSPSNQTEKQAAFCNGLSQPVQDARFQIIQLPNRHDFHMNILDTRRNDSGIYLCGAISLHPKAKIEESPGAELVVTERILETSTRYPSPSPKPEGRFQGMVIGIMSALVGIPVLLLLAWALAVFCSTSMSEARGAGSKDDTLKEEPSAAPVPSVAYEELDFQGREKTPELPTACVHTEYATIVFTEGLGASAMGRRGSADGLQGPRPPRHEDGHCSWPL
Method: (§2) In order to evaluate the binding of the anti-PD-1 mouse monoclonal antibody to the CHO-h PD1, 2×10⁵ CHO-hPD1 cells and an anti-PD-1 mouse monoclonal antibody diluted in concentration gradient (with an initial concentration of 10 μg/mL, and diluted in 3-fold gradient) were added into a 96-well plate, and incubated at 4° C. for 30 minutes. The cells were washed once with a buffer (PBS containing 3% BSA) and then added with a PE-labeled anti-mouse IgG (Fc) Ab (Biolegend) fluorescent secondary antibody, incubated at 4° C. for 30 minutes, then washed once with the buffer and subsequently resuspended in PBS. Thereafter, the cell suspension was subjected to flow cytometric analysis by CytoFlex (Beckman flow cytometer), and the quantity of the antibody bound to the cells was measured according to the mean fluorescence intensity (MFI) of the staining. The same method was used for evaluating the binding of the anti-PD-1 mouse monoclonal antibody to the CHO-cyno cells and the CHO-mousePD1 (sometimes abbreviated as “CHO-mPD1” in the application) cells.

[5] = target: T5, recombinant human PD-1 expressed on the surface of CHO cells (CHO-hPD1) (human, UniProt Q15116 25-288); test: flow cytometry on CHO-hPD1 cells
T5 construct: whole, on cells; also called CHO-PD1; hPD1-transfected CHO cells
T5 sequence (Q15116 25-288): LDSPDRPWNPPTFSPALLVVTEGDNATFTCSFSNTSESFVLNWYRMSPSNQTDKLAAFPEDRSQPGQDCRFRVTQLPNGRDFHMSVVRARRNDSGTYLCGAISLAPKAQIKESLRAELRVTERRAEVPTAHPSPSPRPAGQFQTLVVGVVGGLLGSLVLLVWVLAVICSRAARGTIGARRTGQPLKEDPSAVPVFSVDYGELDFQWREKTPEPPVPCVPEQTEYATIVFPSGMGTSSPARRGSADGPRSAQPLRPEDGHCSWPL
Method: as §2

[6] = target: T6, monkey PD1 expressed on the surface of CHO cells (CHO-cynoPD1) (monkey); test: flow cytometry on CHO-cynoPD1 cells
T6 construct: whole, on cells
Method: as §2

[7] = target: T7, PD1 naturally expressed by activated human lymphocytes (PHA-activated PBMC) (human, UniProt Q15116 25-288); test: flow cytometry on PHA-activated human PBMC
T7 construct: whole, on cells; Also used as the target for the mixed lymphocyte reaction (human T cells)
T7 sequence (Q15116 25-288): as above
Method: After being obtained from fresh human peripheral blood by gradient centrifugation of lymphatic separation medium, the PBMCs were adjusted to the density of 1×10⁶ cells/mL and inoculated into T75, and meanwhile added with PHA-L (Sigma) at a final concentration of 1 μg/mL to stimulate the proliferation of lymphocytes. After being allowed to stand in an incubator at 37° C. and 5% CO₂ for 3 days, the cell suspension was taken out and centrifuged. […] The cells were washed once with the buffer, and added with a PE-labeled goat anti-human IgG fluorescent antibody (Biolegend), and incubated at 4° C. for 30 minutes.

[8] = target: T8, human PD-1-hFc (human, UniProt Q15116 25-167); test: ELISA, antigen coated at 1 µg/mL, antibody 10 µg/mL
T8 construct: Commercial protein; also called PD-1 (ACRO); not shown: human Fc (hFc)
T8 sequence (Q15116 25-167 limits assumed): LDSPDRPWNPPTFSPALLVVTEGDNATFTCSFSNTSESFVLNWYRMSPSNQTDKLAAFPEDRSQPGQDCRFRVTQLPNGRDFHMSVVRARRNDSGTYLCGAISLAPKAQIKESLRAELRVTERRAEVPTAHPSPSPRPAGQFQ
Source text: (§3) The anti-PD-1 mouse monoclonal antibody was allowed to bind with four different member proteins of CD28 family to verify the specificity of the antibody in binding to PD-1. […] A horse radish peroxidase (HRP)-coupled anti-mouse IgG(Sigma) was used as the secondary antibody. After developed with TMB and terminated, it was read for an OD450 value with a microplate reader.

[9] = target: T1, human CD28-hFc; test: as above
Source text: as §3

[10] = target: T2, human ICOS-hFc; test: as above
Source text: as §3

[11] = target: T3, human CTLA4-hFc; test: as above
Source text: as §3

[12] = target: T9, PD-1-his (ACRO) recombinant protein (UniProt Q15116 25-167); test: BLI (ForteBio Octet), PD-1-his loaded on sensor, antibody in solution
T9 construct: Commercial protein; not shown: his tag
T9 sequence (Q15116 25-167 limits assumed): as above
Method: Finally, analysis was conducted by utilizing a kinetic model.

[13] = target: T5, recombinant human PD-1 expressed on the …; test: flow cytometry, blocking of PD-L1-hFc binding to CHO-hPD1, mode 1 (ligand first)
Method: (§4) The ability of the anti-PD-1 mouse monoclonal antibody to block the binding of the ligand to a PD-1 stably expressed on the surface of transfected CHO cells was analyzed by a flow cytometer.
(§5) The cells were centrifuged at 300 g for 5 minutes, washed once with the buffer, added with a PE-labeled goat anti-human IgG fluorescent antibody (Biolegend), and incubated at 4° C. for 30 minutes. The cells were centrifuged and washed once, then resuspended in PBS, and subsequently analyzed by a CytoFlex flow cytometer to detect the quantity of the ligand protein bound to the cells, and calculate the IC₅₀ value of the PD-1 antibody in blocking the binding.

[14] = target: T5, recombinant human PD-1 expressed on the …; test: flow cytometry, blocking of PD-L2-hFc binding to CHO-hPD1, mode 1 (ligand first)
Method: as §4, §5

[15] = target: T5, recombinant human PD-1 expressed on the …; test: flow cytometry, blocking of PD-L1-hFc binding to CHO-hPD1, mode 2 (antibody first)
Method: as §4, §5

[16] = target: T5, recombinant human PD-1 expressed on the …; test: flow cytometry, blocking of PD-L2-hFc binding to CHO-hPD1, mode 2 (antibody first)
Method: as §4, §5

binding result [1]: no binding (tested: 10 µg/mL)
binding result [2]: no binding (tested: 10 µg/mL)
binding result [3]: no binding (tested: 10 µg/mL)
EC50 [5]: 0.739 nM
EC50 [6]: 0.463 nM
EC50 [7]: 0.109 nM
OD450 [8]: 2.12 OD450
OD450 [9]: 0.0625 OD450
OD450 [10]: 0.062 OD450
OD450 [11]: 0.131 OD450
Kd [12]: 0.0435 nM
koff [12]: 3.18e-05 s⁻¹
kon [12]: 732000 M⁻¹ s⁻¹
IC50 [13]: 2.57 nM
IC50 [14]: 4.61 nM
IC50 [15]: 1.55 nM
IC50 [16]: 3.73 nM
B1: anti-PD-1 mouse monoclonal antibody PD-1-112-C2 (antibody, V domains shown)
VH: QVQLQQPGAELVKPGASVKLSCKASGYTFTTYYMYWVKQRPGQGLEWIGGINPSNGGTNFNEKFKSKATLTVDKSSSTAYMQLSSLTSEDSAVYYCTRRDSNYDGGFDYWGQGTTLTVSS
VL: DIVLTQSPASLAVSLGQRATISCRASKSVSTSGYSYMHWYQQKPGQPPKLLIYLAYHLESGVPARFSGSGSGTDFTLNIHPVEEEDAATYYCQHSWELPITFGSGTKLEIKR
notes: Mouse monoclonal antibody from a hybridoma
binding result [4]: no binding (tested: initial concentration of 10 µg/mL)
